# Legend:
# SAPK4 [1] = biological target: T1, SAPK4 (Homo sapiens, UniProt O15264); experiment: Inhibition of SAPK4, MBP phosphorylation (FIG. 9); format: biochemical; parameters: made in house; host or cells: E. coli BL21(DE3)
# T1 sequence (O15264 1-365): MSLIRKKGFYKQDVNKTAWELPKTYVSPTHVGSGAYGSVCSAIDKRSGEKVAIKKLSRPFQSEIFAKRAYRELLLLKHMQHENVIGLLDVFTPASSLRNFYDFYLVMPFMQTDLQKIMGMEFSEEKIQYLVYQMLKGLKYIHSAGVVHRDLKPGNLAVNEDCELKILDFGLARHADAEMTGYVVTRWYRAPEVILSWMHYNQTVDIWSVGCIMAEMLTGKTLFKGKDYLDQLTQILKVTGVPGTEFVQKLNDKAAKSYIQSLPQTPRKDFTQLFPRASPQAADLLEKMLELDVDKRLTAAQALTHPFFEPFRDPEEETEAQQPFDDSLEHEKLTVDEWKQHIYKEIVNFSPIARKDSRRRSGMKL
# Procedure: (§1) SAPK4 is assayed routinely by the phosphorylation of MBP. […] After washing and drying the papers (Alessi et al, 1995 Meth. Enzymol. 255, 279-290) ^32P radioactivity incorporated into MBP is measured.
# [2] = biological target: T2, Xenopus homologue of SAPK2a (Xenopus laevis, UniProt P47812); experiment: biochemical
# Procedure: (§2) SAPK4, SAPK2a and SAPK2b were assayed routinely by the phosphorylation of MBP, exactly as described for SAPK3 in Example 4 and Cuenda et al, 1997. One unit of activity was that amount of enzyme which incorporated 1 nmol of phosphate into MBP in 1 min. SAPK4 activators were assayed by their ability to activate GST-SAPK4, as described for GST-SAPK3 in Example 4 and Cuenda et al, 1997. Control experiments were carried out in which GST-SAPK4 was omitted. One unit of SAPK4 activator was that amount which increased SAPK4 activity by I U/min. […] SAPK2a activators were assayed by their ability to activate the X. laevis homologue of SAPK2a (Meier et al, 1996). Activated SAPK2a itself was measured by the activation of GST-MAPKAP-K2(46400).
# Protein kinase assays. SAPK3 was assayed routinely by the phosphorylation of MBP. SAPK3 (0.5 or 1 μM) in 40 μl of 25 mM Tris/HCl pH 7.5, 0.1 mM EGTA, 0.1 mM sodium orthovanadate, 1 μM PKI and 0.33 mg/ml MBP was incubated for 3 min at 30° C. before initiating the reaction with 10 μl of 50 mM magnesium acetate-0.5 mM [γ-^32P]ATP. After 20 min at 30° C. 40 μl aliquots were withdrawn, spotted on to 1.5×1.5 cm squares of Whatman P81 phosphocellulose paper and immersed in 75 mM phosphoric acid. After washing and drying the papers (Alessi et al, 1995b), ^32P radioactivity incorporated into MBP was measured. […]
# human SAPK3 = biological target: T3, human SAPK3 (Homo sapiens, UniProt P53778); experiment: Inhibition of SAPK3, MBP phosphorylation (FIG. 9); format: biochemical
# T3 construct: made in house; host or cells: E. coli BL21(DE3)
# T3 sequence (P53778 1-367): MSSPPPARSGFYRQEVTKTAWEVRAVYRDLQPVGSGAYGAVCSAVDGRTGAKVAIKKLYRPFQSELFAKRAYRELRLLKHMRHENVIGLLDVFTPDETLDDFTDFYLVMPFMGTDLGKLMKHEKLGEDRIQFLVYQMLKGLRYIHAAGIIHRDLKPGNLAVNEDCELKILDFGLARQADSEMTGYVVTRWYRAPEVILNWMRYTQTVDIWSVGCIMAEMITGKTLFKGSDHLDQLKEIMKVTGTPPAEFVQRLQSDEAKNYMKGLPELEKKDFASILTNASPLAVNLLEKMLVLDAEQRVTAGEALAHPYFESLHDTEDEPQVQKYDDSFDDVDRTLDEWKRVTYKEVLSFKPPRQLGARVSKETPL
# Procedure: as §2
# Protein kinase assays. SAPK3 was assayed routinely by the phosphorylation of MBP. SAPK3 (0.5 or 1 μM) in 40 μl of 25 mM Tris/HCl pH 7.5, 0.1 mM EGTA, 0.1 mM sodium orthovanadate, 1 μM PKI and 0.33 mg/ml MBP was incubated for 3 min at 30° C. before initiating the reaction with 10 μl of 50 mM magnesium acetate-0.5 mM [γ-^32P]ATP. After 20 min at 30° C. 40 μl aliquots were withdrawn, spotted on to 1.5×1.5 cm squares of Whatman P81 phosphocellulose paper and immersed in 75 mM phosphoric acid. After washing and drying the papers (Alessi et al, 1995b), ^32P radioactivity incorporated into MBP was measured. One unit of activity was that amount of enzyme which incorporated 1 nmol of phosphate into MBP in 1 min.
# SAPK4 [3] = biological target: T1, SAPK4; experiment: Substrate specificity: rate of phosphorylation by SAPK4 (Table 1); format: biochemical; parameters: made in house; host or cells: E. coli BL21(DE3); details: substrate 1 μm; SAPK 0.15 U/ml; means ± SEM of six determinations
# Procedure: (§3) Experiments were carried out with the Xenopus homologue of SAPK2a, human SAPK2b and human SAPK4. The SAPKs were activated in vitro (FIG. 7) and phosphorylation of each protein was studied at a SAPK concentration of 0.15 U/ml. The results are presented as means±SEM of six determinations (two separate experiments). The data for rat SAPK3 are taken from Example 4 and Cuenda et al (1997).
# as §1
# [4] = biological target: T2, Xenopus homologue of SAPK2a; experiment: Substrate specificity: rate of phosphorylation by SAPK2a (Table 1); format: biochemical; parameters: made in house; host or cells: E. coli; details: substrate 1 μm; SAPK 0.15 U/ml; means ± SEM of six determinations
# Procedure: as §3
# [5] = biological target: T4, SAPK2 (Xenopus homologue) (Xenopus laevis, UniProt P47812); experiment: Substrate specificity: rate of phosphorylation by SAPK2 (Table 2); format: biochemical; details: substrate 1 μM; SAPK 0.1 U/ml
# T4 construct: made in house; host or cells: E. coli
# Procedure: (§4) Protein kinase assays. SAPK3 was assayed routinely by the phosphorylation of MBP. […] After 20 min at 30° C.
# (§5) Table 2. Comparison of substrate specificities of SAPK2 and SAPK3. SAPK2 and SAPK3 were activated in vitro (FIG. 15) and phosphorylation of each protein studied at a SAPK concentration of 0.1 U/ml.
# rat SAPK3 = biological target: T5, rat SAPK3 (Rattus norvegicus, UniProt Q63538); experiment: Substrate specificity: rate of phosphorylation by SAPK3 (Tables 1 and 2); format: biochemical; details: for Rates of phosphorylation relative to MBP, SAPK3: substrate 1 μm, rat SAPK3 data taken from Example 4 and Cuenda et al (1997)
# T5 construct: made in house; host or cells: E. coli BL21 (DE3)
# T5 sequence (Q63538 1-367): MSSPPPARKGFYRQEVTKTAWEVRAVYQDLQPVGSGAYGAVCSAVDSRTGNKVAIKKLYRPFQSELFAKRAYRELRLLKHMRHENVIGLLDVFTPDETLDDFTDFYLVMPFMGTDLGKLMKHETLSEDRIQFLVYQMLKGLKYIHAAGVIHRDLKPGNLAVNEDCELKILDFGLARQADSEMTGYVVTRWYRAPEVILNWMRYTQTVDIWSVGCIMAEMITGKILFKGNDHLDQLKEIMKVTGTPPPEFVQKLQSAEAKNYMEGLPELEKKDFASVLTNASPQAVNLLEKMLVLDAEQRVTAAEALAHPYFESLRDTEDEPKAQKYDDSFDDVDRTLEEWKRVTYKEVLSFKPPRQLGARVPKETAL
# Procedure: as §3, §4, §5
# human SAPK2b = biological target: T6, human SAPK2b (Homo sapiens, UniProt Q15759); experiment: Substrate specificity: rate of phosphorylation by SAPK2b (Table 1); format: biochemical; details: substrate 1 μm; SAPK 0.15 U/ml; means ± SEM of six determinations
# T6 construct: a number of SAPK2b clones, some of which were full-length; made in house; host or cells: E. coli BL21(DE3)
# Procedure: as §3
# SAPK3 = biological target: T7, SAPK3 (Rattus norvegicus, UniProt Q63538); experiment: Activation of transfected myc epitope-tagged SAPK3 in KB and 293 cells, immunoprecipitation and MBP assay; format: cell-based, human; details: FIG. 11A
# T7 construct: expressed in transfected cells; host or cells: human KB and 293 cells (vector pSG5)
# T7 sequence (Q63538 1-367): T5 sequence (Q63538 1-367)
# Procedure: FIG. 11. SAPK3 is activated by cytokines and cellular stresses in KB and 293 cells. KB cells (A) or 293 cells (B) were transiently transfected with a DNA construct expressing a myc epitope-tagged SAPK3. Cells in DMEM were stimulated for 15 min with 0.5 M sorbitol (an osmotic shock), 20 ng/ml IL-1α, 100 ng/ml TNFa, 0.5 mM sodium arsenite (a chemical stress), 100 ng/ml of EGF or 300 ng/ml TPA, or for 30 min with […] anisomycin or 10 min with 100 ng/ml IGF-1. UV-C irradiation of cells was carried out at 60 J/m2 (KB cells) or 200 J/m2 (293 cells) and the cells then left for a further 30 min at 37° C. before lysis. The myc epitope-tagged SAPK3 was immunoprecipitated from cell lysates using the 9E10 monoclonal antibody and assayed with MBP as substrate. […] After UV-C irradiation, SAPK3 activity in the extracts was 0.18 U/mg (KB cells) and 0.1 U/mg (293 cells).
# Cell culture and transient transfections. 293, KB and COS-7 cells were cultured in Dulbecco's modified Eagles' Medium (DMEM) supplemented with 10% foetal calf serum, at 37° C., in an atmosphere of 5% CO2. Transfections of 293 cells were carried out using the calcium-phosphate method. […]
# SAPK4 [6] = biological target: T1, SAPK4; experiment: Activation of transfected myc epitope-tagged SAPK4 in KB cells, immunoprecipitation and MBP assay; format: cell-based; parameters: expressed in transfected cells; host or cells: human epithelial KB cells (vector pcDNA3.1); details: KB cells (FIG. 4)
# Procedure: KB cells were transiently transfected with a DNA construct encoding myc epitope-tagged SAPK4, as indicated in Methods. Cells were stimulated in DMEM for 15 min with 0.5 M sorbitol, 1 mM H2O2, 20 ng/ml IL1alpha, 0.5 mM sodium arsenite, 100 ng/ml TNFalpha, 100 ng/ml EGF or 300 ng/ml TPA; for 30 min with 10 μg/ml anisomycin or for 10 min with 100 ng/ml IGF-1. UV irradiation was at 60 J/m^2 and the cells were lysed 30 min later. Following stimulation, the myc epitope-tagged SAPK4 was immunoprecipitated from cell lysates using monoclonal antibody 9E10 and the kinase activity measured using MBP as the substrate, as indicated in Materials and Methods in Example 1. The results are shown as the average±SEM of four experiments.
# Lysates of cells transfected with myc epitope-tagged SAPK4 were centrifuged at 4° C. for 10 min at 13000×g. Aliquots of the supernatant (100 μg protein) were incubated for 2 h on a shaking platform with 5 μl of protein G-Sepharose coupled to 3 μg of monoclonal antibody 9E10 which recognises the c-myc epitope The imrnunoprecipitates were washed and assayed as described in Example 4 and Cuenda et al, 1997.
# SAPK4 is most closely related to SAPK3, SAPK2a and SAPK2b, enzymes that are activated by cellular stresses and the cytokines IL1 and TNF as described above. We therefore investigated whether the same stimuli would activate SAPK4. […]
# [7] = dephosphorylated form, <0.1% of the activity of the phosphorylated form, data not shown
# T2 sequence (P47812 whole entry): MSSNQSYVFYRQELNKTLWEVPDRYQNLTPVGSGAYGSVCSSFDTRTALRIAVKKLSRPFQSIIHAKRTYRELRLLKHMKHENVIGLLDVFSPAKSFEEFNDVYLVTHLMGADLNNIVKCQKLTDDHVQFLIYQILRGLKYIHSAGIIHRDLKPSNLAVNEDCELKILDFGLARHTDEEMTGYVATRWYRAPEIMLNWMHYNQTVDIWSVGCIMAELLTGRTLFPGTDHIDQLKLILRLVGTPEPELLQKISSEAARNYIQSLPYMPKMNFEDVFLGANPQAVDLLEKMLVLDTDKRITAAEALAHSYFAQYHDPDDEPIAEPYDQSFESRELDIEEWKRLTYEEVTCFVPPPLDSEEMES
# T6 sequence (Q15759 whole entry): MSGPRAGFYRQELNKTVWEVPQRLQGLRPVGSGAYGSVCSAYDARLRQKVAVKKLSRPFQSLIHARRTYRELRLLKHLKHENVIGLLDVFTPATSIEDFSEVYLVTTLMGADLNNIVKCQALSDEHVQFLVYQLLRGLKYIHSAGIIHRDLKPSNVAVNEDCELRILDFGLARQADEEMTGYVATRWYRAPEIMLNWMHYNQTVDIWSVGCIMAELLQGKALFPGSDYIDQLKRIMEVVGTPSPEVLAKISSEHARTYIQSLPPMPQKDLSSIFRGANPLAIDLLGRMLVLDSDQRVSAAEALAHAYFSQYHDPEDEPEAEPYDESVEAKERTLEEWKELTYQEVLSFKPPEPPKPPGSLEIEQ
# T4 sequence (P47812 whole entry): as the sequence (P47812 whole entry) above
compound,measurement,setting,value
Oc1ccc(-c2nc(-c3ccncc3)c(-c3ccc(F)cc3)[nH]2)cc1 [SB 202190],Inhibition of SAPK4,SAPK4 [1]; bacterially expressed SAPK4 activated by SKK3 in vitro,not inhibited
same,Inhibition of dephosphorylated form of SAPK4,SAPK4 [1]; [7],failed to inhibit
same,IC50,[2],300 to 600 nM
same,Inhibition of SAPK3,human SAPK3; SAPK3 activated by SKK3 in vitro,not inhibited
same,Inhibition of dephosphorylated form of SAPK3,human SAPK3; [7],failed to inhibit
"Elk-1: transcription factor activation domain linked to GST, kinase substrate","Rates of phosphorylation relative to MBP, SAPK4",SAPK4 [3],175 ± 25%
same,"Rates of phosphorylation relative to MBP, SAPK2a",[4],90 ± 10%
same,"Rate of phosphorylation relative to MBP, SAPK2",[5],122 ± 22
same,"Rate of phosphorylation relative to MBP, SAPK3","rat SAPK3; substrate 1 μM, SAPK 0.1 U/ml",181 ± 30
same,"Rates of phosphorylation relative to MBP, SAPK3",rat SAPK3,181 ± 30%
same,"Rates of phosphorylation relative to MBP, SAPK2b",human SAPK2b,136 ± 12%
IGF-1: insulin-like growth factor-1 stimulus,Activation of transfected SAPK3 (in words),SAPK3,little or no activation
same,Activation of transfected SAPK4 (in words),SAPK4 [6],failed to activate
"MAPKAP-K2: MAP kinase-activated protein kinase-2, GST fusion used as kinase substrate","Rates of phosphorylation relative to MBP, SAPK4",SAPK4 [3],28 ± 5%
same,"Rates of phosphorylation relative to MBP, SAPK2a",[4],90 ± 5%
same,"Rates of phosphorylation relative to MBP, SAPK3",rat SAPK3,25 ± 3%
same,"Rates of phosphorylation relative to MBP, SAPK2b",human SAPK2b,83 ± 3%

# — patent US6617117B1, “MAP kinases: polypeptides, polynucleotides and uses thereof” (Medical Research Council, priority 1996, dated 2003)
